B1: brain-derived neurotrophic factor (BDNF) (ligand, UniProt P23560 129-247, looked up)
chain: HSDPARRGELSVCDSISEWVTAADKKTAVDMSGGTVTVLEKVPVSKGQLKQYFYETKCNPMGYTKEGCRGIDKRHWNSQCRTTQSYVRALTMDSKKRIGWRFIRIDTSCVCTLTIKRGR
B2: neurotrophin-4 (NT-4) (ligand, UniProt P34130 81-210, looked up)
chain: GVSETAPASRRGELAVCDAVSGWVTDRRTAVDLRGREVEVLGEVPAAGGSPLRQYFFETRCKADNAEEGGPGAGGGGCRGVDRRHWVSECKAKQSYVRALTADAQGRVGWRWIRIDTACVCTLLSRTGRA

Biological target: TrkB receptor (UniProt Q16620 32-822, limits assumed)
Test: cell-based or functional assay

Chain of TrkB receptor (Q16620 32-822 limits assumed): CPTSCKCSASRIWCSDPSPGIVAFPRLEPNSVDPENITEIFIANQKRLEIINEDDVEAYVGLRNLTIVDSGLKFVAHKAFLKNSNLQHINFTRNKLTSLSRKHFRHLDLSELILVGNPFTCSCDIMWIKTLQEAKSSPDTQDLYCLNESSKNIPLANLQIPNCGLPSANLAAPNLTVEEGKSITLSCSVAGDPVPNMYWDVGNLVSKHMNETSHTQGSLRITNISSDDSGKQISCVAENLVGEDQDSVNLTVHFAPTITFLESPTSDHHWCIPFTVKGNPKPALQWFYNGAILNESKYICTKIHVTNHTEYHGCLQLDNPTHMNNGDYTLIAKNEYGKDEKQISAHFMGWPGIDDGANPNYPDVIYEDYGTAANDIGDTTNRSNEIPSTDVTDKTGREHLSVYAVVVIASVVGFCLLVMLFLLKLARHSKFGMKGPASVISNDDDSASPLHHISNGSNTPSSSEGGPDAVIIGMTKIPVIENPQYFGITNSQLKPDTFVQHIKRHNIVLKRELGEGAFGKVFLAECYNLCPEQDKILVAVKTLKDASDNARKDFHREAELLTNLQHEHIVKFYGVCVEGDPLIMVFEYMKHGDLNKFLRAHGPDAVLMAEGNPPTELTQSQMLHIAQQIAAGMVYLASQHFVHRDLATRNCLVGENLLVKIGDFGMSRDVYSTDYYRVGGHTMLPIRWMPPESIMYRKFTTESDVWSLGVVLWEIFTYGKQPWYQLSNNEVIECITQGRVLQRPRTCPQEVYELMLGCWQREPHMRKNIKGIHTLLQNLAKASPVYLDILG

| EC50, BDNF-induced activation of TrkB (luminescence, DiscoverX kit cells) [nM] | EC50, NT-4-induced activation of TrkB (luminescence, DiscoverX kit cells) [nM] | Binder |
| --- | --- | --- |
| 0.7 | – | B1 |
| – | 0.012 | B2 |

From patent publication US20180170995A1 (LEVICEPT, published 2018)
